This passage reports EC50 [nM] (cAMP) results from patent publication US20260001928A1 (CORTERIA PHARMACEUTICALS, priority 2022, published 2026).

*1 amine or outer side, *2 acyl side, *3 side chain or, on linkers, in order; H or OH if unused. Where no end group is shown, it is not given here. Side-chain parts run from the residue outwards. [ ]: non-standard residue; d: D form. The star is where a group is joined. C20 diacid = O=C(O)CCCCCCCCCCCCCCCCCCC(=O)*; C16 diacid = O=C(O)CCCCCCCCCCCCCCC(=O)*; γGlu = O=C(O)[C@H](CCC(=O)[*:2])N[*:1]; NMeI = CC[C@H](C)[C@H](NC)C(=O)O; AEEA = NCCOCCOCC(=O)O; Aib = CC(C)(N)C(=O)O

In the test the target is human corticotropin-releasing factor 2a (CRF2a receptor) (human), Q13324. The experiment in a line: cell-based or functional assay.
Sequence of human corticotropin-releasing factor 2a (CRF2a receptor) (human), Q13324 (Q13324 20-411): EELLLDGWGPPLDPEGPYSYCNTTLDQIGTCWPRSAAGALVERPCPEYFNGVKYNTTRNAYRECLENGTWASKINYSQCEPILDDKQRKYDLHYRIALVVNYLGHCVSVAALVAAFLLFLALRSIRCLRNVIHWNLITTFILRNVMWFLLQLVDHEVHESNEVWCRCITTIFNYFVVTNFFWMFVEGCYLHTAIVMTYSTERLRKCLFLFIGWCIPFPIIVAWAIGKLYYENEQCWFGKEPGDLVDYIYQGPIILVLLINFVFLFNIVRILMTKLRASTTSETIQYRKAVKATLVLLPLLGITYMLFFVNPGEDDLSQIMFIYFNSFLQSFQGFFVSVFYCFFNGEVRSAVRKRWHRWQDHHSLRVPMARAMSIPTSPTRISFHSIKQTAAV

B1: SEQ ID NO 232 (peptide)
peptide: Ac-IVLSLD[dV]PIKLK([AEEA-γGlu-C20 diacid])KILLEQEKQKAQREQAETN[Aib]QILAQV-NH2
SMILES: CC[C@H](C)[C@H](NC(C)=O)C(=O)N[C@H](C(=O)N[C@@H](CC(C)C)C(=O)N[C@@H](CO)C(=O)N[C@@H](CC(C)C)C(=O)N[C@@H](CC(=O)O)C(=O)N[C@@H](C(=O)N1CCC[C@H]1C(=O)N[C@H](C(=O)N[C@@H](CCCCN)C(=O)N[C@@H](CC(C)C)C(=O)N[C@@H](CCCCNC(=O)COCCOCCNC(=O)CC[C@H](NC(=O)CCCCCCCCCCCCCCCCCCC(=O)O)C(=O)O)C(=O)N[C@@H](CCCCN)C(=O)N[C@H](C(=O)N[C@@H](CC(C)C)C(=O)N[C@@H](CC(C)C)C(=O)N[C@@H](CCC(=O)O)C(=O)N[C@@H](CCC(N)=O)C(=O)N[C@@H](CCC(=O)O)C(=O)N[C@@H](CCCCN)C(=O)N[C@@H](CCC(N)=O)C(=O)N[C@@H](CCCCN)C(=O)N[C@@H](C)C(=O)N[C@@H](CCC(N)=O)C(=O)N[C@@H](CCCNC(=N)N)C(=O)N[C@@H](CCC(=O)O)C(=O)N[C@@H](CCC(N)=O)C(=O)N[C@@H](C)C(=O)N[C@@H](CCC(=O)O)C(=O)N[C@H](C(=O)N[C@@H](CC(N)=O)C(=O)NC(C)(C)C(=O)N[C@@H](CCC(N)=O)C(=O)N[C@H](C(=O)N[C@@H](CC(C)C)C(=O)N[C@@H](C)C(=O)N[C@@H](CCC(N)=O)C(=O)N[C@H](C(N)=O)C(C)C)[C@@H](C)CC)[C@@H](C)O)[C@@H](C)CC)[C@@H](C)CC)C(C)C)C(C)C
As for B1, the EC50 [nM] (cAMP) amounted to 0.12 nM.

B2: SEQ ID NO 230 (peptide)
peptide: Ac-IVLSLD[dV]PIKLK([AEEA-γGlu-C20 diacid])KILLEQEKQKKQREQAETN[Aib]QILAQV-NH2
SMILES: CC[C@H](C)[C@H](NC(C)=O)C(=O)N[C@H](C(=O)N[C@@H](CC(C)C)C(=O)N[C@@H](CO)C(=O)N[C@@H](CC(C)C)C(=O)N[C@@H](CC(=O)O)C(=O)N[C@@H](C(=O)N1CCC[C@H]1C(=O)N[C@H](C(=O)N[C@@H](CCCCN)C(=O)N[C@@H](CC(C)C)C(=O)N[C@@H](CCCCNC(=O)COCCOCCNC(=O)CC[C@H](NC(=O)CCCCCCCCCCCCCCCCCCC(=O)O)C(=O)O)C(=O)N[C@@H](CCCCN)C(=O)N[C@H](C(=O)N[C@@H](CC(C)C)C(=O)N[C@@H](CC(C)C)C(=O)N[C@@H](CCC(=O)O)C(=O)N[C@@H](CCC(N)=O)C(=O)N[C@@H](CCC(=O)O)C(=O)N[C@@H](CCCCN)C(=O)N[C@@H](CCC(N)=O)C(=O)N[C@@H](CCCCN)C(=O)N[C@@H](CCCCN)C(=O)N[C@@H](CCC(N)=O)C(=O)N[C@@H](CCCNC(=N)N)C(=O)N[C@@H](CCC(=O)O)C(=O)N[C@@H](CCC(N)=O)C(=O)N[C@@H](C)C(=O)N[C@@H](CCC(=O)O)C(=O)N[C@H](C(=O)N[C@@H](CC(N)=O)C(=O)NC(C)(C)C(=O)N[C@@H](CCC(N)=O)C(=O)N[C@H](C(=O)N[C@@H](CC(C)C)C(=O)N[C@@H](C)C(=O)N[C@@H](CCC(N)=O)C(=O)N[C@H](C(N)=O)C(C)C)[C@@H](C)CC)[C@@H](C)O)[C@@H](C)CC)[C@@H](C)CC)C(C)C)C(C)C
For B2, the EC50 [nM] (cAMP) stood at 0.16 nM.

B3: SEQ ID NO 231 (peptide)
peptide: Ac-IVLSLD[dV]PIKLK([AEEA-γGlu-C20 diacid])KILLEQEKQKEQREQAETN[Aib]QILAQV-NH2
SMILES: CC[C@H](C)[C@H](NC(C)=O)C(=O)N[C@H](C(=O)N[C@@H](CC(C)C)C(=O)N[C@@H](CO)C(=O)N[C@@H](CC(C)C)C(=O)N[C@@H](CC(=O)O)C(=O)N[C@@H](C(=O)N1CCC[C@H]1C(=O)N[C@H](C(=O)N[C@@H](CCCCN)C(=O)N[C@@H](CC(C)C)C(=O)N[C@@H](CCCCNC(=O)COCCOCCNC(=O)CC[C@H](NC(=O)CCCCCCCCCCCCCCCCCCC(=O)O)C(=O)O)C(=O)N[C@@H](CCCCN)C(=O)N[C@H](C(=O)N[C@@H](CC(C)C)C(=O)N[C@@H](CC(C)C)C(=O)N[C@@H](CCC(=O)O)C(=O)N[C@@H](CCC(N)=O)C(=O)N[C@@H](CCC(=O)O)C(=O)N[C@@H](CCCCN)C(=O)N[C@@H](CCC(N)=O)C(=O)N[C@@H](CCCCN)C(=O)N[C@@H](CCC(=O)O)C(=O)N[C@@H](CCC(N)=O)C(=O)N[C@@H](CCCNC(=N)N)C(=O)N[C@@H](CCC(=O)O)C(=O)N[C@@H](CCC(N)=O)C(=O)N[C@@H](C)C(=O)N[C@@H](CCC(=O)O)C(=O)N[C@H](C(=O)N[C@@H](CC(N)=O)C(=O)NC(C)(C)C(=O)N[C@@H](CCC(N)=O)C(=O)N[C@H](C(=O)N[C@@H](CC(C)C)C(=O)N[C@@H](C)C(=O)N[C@@H](CCC(N)=O)C(=O)N[C@H](C(N)=O)C(C)C)[C@@H](C)CC)[C@@H](C)O)[C@@H](C)CC)[C@@H](C)CC)C(C)C)C(C)C
Molecule B3 returned an EC50 [nM] (cAMP) of 0.28 nM.

B4: SEQ ID NO 233 (peptide)
peptide: [NMeI]VLSLD[dV]PIKLK([AEEA-γGlu-C20 diacid])KILLEQEKQKEQREQAETN[Aib]QILAQV-NH2
modifications: N-terminus assumed
SMILES: CC[C@H](C)[C@H](NC)C(=O)N[C@H](C(=O)N[C@@H](CC(C)C)C(=O)N[C@@H](CO)C(=O)N[C@@H](CC(C)C)C(=O)N[C@@H](CC(=O)O)C(=O)N[C@@H](C(=O)N1CCC[C@H]1C(=O)N[C@H](C(=O)N[C@@H](CCCCN)C(=O)N[C@@H](CC(C)C)C(=O)N[C@@H](CCCCNC(=O)COCCOCCNC(=O)CC[C@H](NC(=O)CCCCCCCCCCCCCCCCCCC(=O)O)C(=O)O)C(=O)N[C@@H](CCCCN)C(=O)N[C@H](C(=O)N[C@@H](CC(C)C)C(=O)N[C@@H](CC(C)C)C(=O)N[C@@H](CCC(=O)O)C(=O)N[C@@H](CCC(N)=O)C(=O)N[C@@H](CCC(=O)O)C(=O)N[C@@H](CCCCN)C(=O)N[C@@H](CCC(N)=O)C(=O)N[C@@H](CCCCN)C(=O)N[C@@H](CCC(=O)O)C(=O)N[C@@H](CCC(N)=O)C(=O)N[C@@H](CCCNC(=N)N)C(=O)N[C@@H](CCC(=O)O)C(=O)N[C@@H](CCC(N)=O)C(=O)N[C@@H](C)C(=O)N[C@@H](CCC(=O)O)C(=O)N[C@H](C(=O)N[C@@H](CC(N)=O)C(=O)NC(C)(C)C(=O)N[C@@H](CCC(N)=O)C(=O)N[C@H](C(=O)N[C@@H](CC(C)C)C(=O)N[C@@H](C)C(=O)N[C@@H](CCC(N)=O)C(=O)N[C@H](C(N)=O)C(C)C)[C@@H](C)CC)[C@@H](C)O)[C@@H](C)CC)[C@@H](C)CC)C(C)C)C(C)C
For the molecule B4, the EC50 [nM] (cAMP) came out at 0.12 nM.

B5: SEQ ID NO 234 (peptide)
peptide: [NMeI]VLSLD[dV]PIKLK([AEEA-γGlu-C20 diacid])KILLEQEKQK[Aib]QREQAETN[Aib]QILAQV-NH2
modifications: N-terminus assumed
SMILES: CC[C@H](C)[C@H](NC)C(=O)N[C@H](C(=O)N[C@@H](CC(C)C)C(=O)N[C@@H](CO)C(=O)N[C@@H](CC(C)C)C(=O)N[C@@H](CC(=O)O)C(=O)N[C@@H](C(=O)N1CCC[C@H]1C(=O)N[C@H](C(=O)N[C@@H](CCCCN)C(=O)N[C@@H](CC(C)C)C(=O)N[C@@H](CCCCNC(=O)COCCOCCNC(=O)CC[C@H](NC(=O)CCCCCCCCCCCCCCCCCCC(=O)O)C(=O)O)C(=O)N[C@@H](CCCCN)C(=O)N[C@H](C(=O)N[C@@H](CC(C)C)C(=O)N[C@@H](CC(C)C)C(=O)N[C@@H](CCC(=O)O)C(=O)N[C@@H](CCC(N)=O)C(=O)N[C@@H](CCC(=O)O)C(=O)N[C@@H](CCCCN)C(=O)N[C@@H](CCC(N)=O)C(=O)N[C@@H](CCCCN)C(=O)NC(C)(C)C(=O)N[C@@H](CCC(N)=O)C(=O)N[C@@H](CCCNC(=N)N)C(=O)N[C@@H](CCC(=O)O)C(=O)N[C@@H](CCC(N)=O)C(=O)N[C@@H](C)C(=O)N[C@@H](CCC(=O)O)C(=O)N[C@H](C(=O)N[C@@H](CC(N)=O)C(=O)NC(C)(C)C(=O)N[C@@H](CCC(N)=O)C(=O)N[C@H](C(=O)N[C@@H](CC(C)C)C(=O)N[C@@H](C)C(=O)N[C@@H](CCC(N)=O)C(=O)N[C@H](C(N)=O)C(C)C)[C@@H](C)CC)[C@@H](C)O)[C@@H](C)CC)[C@@H](C)CC)C(C)C)C(C)C
With B5, the EC50 [nM] (cAMP) came out at 0.09 nM.

B6: SEQ ID NO 14 (peptide)
peptide: H-IVLSLD[dV]PIKLK([γGlu-C16 diacid])QILLKQERQKKQREQAEKNTQILEQV-NH2
SMILES: CC[C@H](C)[C@H](N)C(=O)N[C@H](C(=O)N[C@@H](CC(C)C)C(=O)N[C@@H](CO)C(=O)N[C@@H](CC(C)C)C(=O)N[C@@H](CC(=O)O)C(=O)N[C@@H](C(=O)N1CCC[C@H]1C(=O)N[C@H](C(=O)N[C@@H](CCCCN)C(=O)N[C@@H](CC(C)C)C(=O)N[C@@H](CCCCNC(=O)CC[C@H](NC(=O)CCCCCCCCCCCCCCC(=O)O)C(=O)O)C(=O)N[C@@H](CCC(N)=O)C(=O)N[C@H](C(=O)N[C@@H](CC(C)C)C(=O)N[C@@H](CC(C)C)C(=O)N[C@@H](CCCCN)C(=O)N[C@@H](CCC(N)=O)C(=O)N[C@@H](CCC(=O)O)C(=O)N[C@@H](CCCNC(=N)N)C(=O)N[C@@H](CCC(N)=O)C(=O)N[C@@H](CCCCN)C(=O)N[C@@H](CCCCN)C(=O)N[C@@H](CCC(N)=O)C(=O)N[C@@H](CCCNC(=N)N)C(=O)N[C@@H](CCC(=O)O)C(=O)N[C@@H](CCC(N)=O)C(=O)N[C@@H](C)C(=O)N[C@@H](CCC(=O)O)C(=O)N[C@@H](CCCCN)C(=O)N[C@@H](CC(N)=O)C(=O)N[C@H](C(=O)N[C@@H](CCC(N)=O)C(=O)N[C@H](C(=O)N[C@@H](CC(C)C)C(=O)N[C@@H](CCC(=O)O)C(=O)N[C@@H](CCC(N)=O)C(=O)N[C@H](C(N)=O)C(C)C)[C@@H](C)CC)[C@@H](C)O)[C@@H](C)CC)[C@@H](C)CC)C(C)C)C(C)C
Take B6: the EC50 [nM] (cAMP) worked out at 0.26 nM.
